Data reported in US20050143472A1, “Novel treatment for pathologies associated with oxidative damage” (priority 2002, published 2005).

Experiment: Freeze/thaw stability of recombinant mPAO activity
Format: physicochemical
Method: Using the conditions for the steady-state kinetic assay described below, mPAO was determined to be stable at 2-4 mg/mL when frozen at −20° C. or −80° C. and thawed through several cycles. […] Thus, mPAO was stored at −20° C. in the presence of 33% (v/v) ethylene glycol. Ethylene glycol elimination and buffer exchange was accomplished easily by several concentration/dilution cycles using Centricon-10 centrifuge concentrators.

B1: mPAO: recombinant murine peroxisomal polyamine oxidase (SEQ ID NO:4) produced in E. coli (protein, listed as Mus musculus)
chain: MAFPGPRVLVVGSGIAGLGAAQKLCSHRAAPHLRVLEATASAGGRIRSERCFGGVVELGAHWIHGPSQDNPVFQLAAEFGLLGEKELSEENQLVDTGGHVALPSMIWSSSGTSVSLELMTEMARLFYGLIERTREFLNESETPMASVGEFLKKEISQQVASWTEDDEDTRKRKLAILNTFFNIKCCVSGTHSMDLVALAPFGEYTVLPGLDCILAGGYQGLTDRILASLPKDTVAFDKPVKTIHWNGSFQEAAFPGETFPVLVECEDGARLPAHHVIVTVPLGFSKEHQDTFFEPPLPAKKAEAIKKLGFGTNNKIFLEFEEPFWEPDCQFIQVVWEDTSPLQDTALSLQDTWFKKLIGFLVQPSFESSHVLCGFIAGLESEFMETLSDEEVLLSLTQVLRRVTGNPQLPAAKSVLSSRWHSAPYTRGSYSYVAVGSTGDDLDLMAQPLPADGTGTQLQVLFAGEATHRTFYSTTHGALLSGWREADRLIGLWDSQAEQSRPRL
stability of activity on freezing and thawing (30 μg/mL, several freeze/thaw cycles): activity was lost quickly
stability of activity on freezing and thawing (2-4 mg/mL, frozen at −20° C. or −80° C., several cycles): stable
stability of activity on freezing and thawing (33% (v/v) ethylene glycol added, 20 μg/mL to 4 mg/mL): stable for several cycles of freezing and thawing
